Test results as given in PMC3064986 (Biochemical and biophysical research communications, 2011).

B1: yeast ornithine decarboxylase (Saccharomyces cerevisiae SPE1) (enzyme, UniProt P08432 1-466, looked up)
chain: MSSTQVGNALSSSTTTLVDLSNSTVTQKKQYYKDGETLHNLLLELKNNQDLELLPHEQAHPKIFQALKARIGRINNETCDPGEENSFFICDLGEVKRLFNNWVKELPRIKPFYAVKCNPDTKVLSLLAELGVNFDCASKVEIDRVLSMNISPDRIVYANPCKVASFIRYAASKNVMKSTFDNVEELHKIKKFHPESQLLLRIATDDSTAQCRLSTKYGCEMENVDVLLKAIKELGLNLAGVSFHVGSGASDFTSLYKAVRDARTVFDKAANEYGLPPLKILDVGGGFQFESFKESTAVLRLALEEFFPVGCGVDIIAEPGRYFVATAFTLASHVIAKRKLSENEAMIYTNDGVYGNMNCILFDHQEPHPRTLYHNLEFHYDDFESTTAVLDSINKTRSEYPYKVSIWGPTCDGLDCIAKEYYMKHDVIVGDWFYFPALGAYTSSAATQFNGFEQTADIVYIDSELD
B2: yeast antizyme (Saccharomyces cerevisiae), N-terminal 6XHis-tagged, full length (natural protein, UniProt Q02803 1-292, looked up)
chain: MYEVIQKRKTKIINVLQSPELMRLIEDPSNLGISLHFPVSSLLKSNKCTPMPKLSTYSLASGGFKDWCADIPLDVPPEIDIIDFYWDVILCMESQFILDYNVPSKNKGNNQKSVAKLLKNKLVNDMKTTLKRLIYNENTKQYKNNNSHDGYNWRKLGSQYFILYLPLFTQELIWCKLNENYFHVVLPSLLNSRNVHDNHSTYINKDWLLALLELTSNLNQNFKFEYMKLRLYILRDDLINNGLDLLKNLNWVGGKLIKNEDREVLLNSTDLATDSISHLLGDENFVILEFEC

Legend:
[1] = molecular target: B2; test: SEC-MALS
[2] = molecular target: B1; test: SPR

Binder | stoichiometry N [1] | Kd [2] | kon [2]
B1 | 1 ODC per AZ | – | –
B2 | – | 17.3 nM | 31400 M⁻¹ s⁻¹
